Measurements taken from US20040171549A1.

Target: integrin alpha v beta 3 present at the surface of the endothelial cells (CPAE) (bovine (calf pulmonary artery endothelial cells)) (UniProt P80746)
Experiment: cell-based or functional assay

Chain of UniProt P80746 (P80746 31-1048): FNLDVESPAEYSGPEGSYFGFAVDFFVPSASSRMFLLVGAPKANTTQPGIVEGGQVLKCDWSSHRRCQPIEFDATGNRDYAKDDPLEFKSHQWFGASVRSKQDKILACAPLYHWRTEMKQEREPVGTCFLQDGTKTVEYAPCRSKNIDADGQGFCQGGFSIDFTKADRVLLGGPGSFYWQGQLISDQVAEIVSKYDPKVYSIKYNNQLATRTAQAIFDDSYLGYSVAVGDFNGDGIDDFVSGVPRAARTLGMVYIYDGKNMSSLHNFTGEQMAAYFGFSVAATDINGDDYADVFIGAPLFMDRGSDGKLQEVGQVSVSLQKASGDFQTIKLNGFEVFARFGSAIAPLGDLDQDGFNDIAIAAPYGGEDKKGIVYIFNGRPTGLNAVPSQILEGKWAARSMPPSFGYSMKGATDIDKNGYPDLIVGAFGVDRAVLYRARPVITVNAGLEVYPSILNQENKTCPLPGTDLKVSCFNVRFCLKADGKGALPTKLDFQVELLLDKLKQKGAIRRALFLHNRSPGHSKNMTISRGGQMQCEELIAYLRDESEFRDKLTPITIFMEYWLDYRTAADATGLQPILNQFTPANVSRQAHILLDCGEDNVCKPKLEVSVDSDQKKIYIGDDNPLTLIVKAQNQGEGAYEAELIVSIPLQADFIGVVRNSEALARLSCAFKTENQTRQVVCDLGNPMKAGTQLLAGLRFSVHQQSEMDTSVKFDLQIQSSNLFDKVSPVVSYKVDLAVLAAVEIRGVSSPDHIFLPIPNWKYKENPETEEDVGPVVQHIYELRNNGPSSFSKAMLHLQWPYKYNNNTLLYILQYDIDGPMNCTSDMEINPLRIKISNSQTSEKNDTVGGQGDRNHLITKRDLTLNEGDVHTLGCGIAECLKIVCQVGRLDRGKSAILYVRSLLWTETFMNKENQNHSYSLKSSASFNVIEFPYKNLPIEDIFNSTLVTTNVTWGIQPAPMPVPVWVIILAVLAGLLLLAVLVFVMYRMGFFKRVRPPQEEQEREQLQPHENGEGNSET

inhibition of the adhesion of the cells on fibrinogen: 50%
inhibition of the adhesion of the cells on vitronectin: 49%
Substance: 1.4-kDa fragment of AMEP constituted of 12 amino acids with the sequence RGDC (peptide)
